# Results reported in patent publication US11643670B2, “Methods of enhancing chromosomal homologous recombination” (Massachusetts Institute of Technology, priority 2018, dated 2023).
# Test system: maternal Chd2 locus
# Assay: Donor-free interchromosomal homologous recombination (ICHR) in IVF-derived Chd2^R1684H/+ embryos
# Assay type: cell-based, mouse
# Description: tracrRNA, crRNAs, and ssODNs were synthesized by Integrated DNA Technologies (TABLE 1). All injection mixtures were prepared in a final volume of 50 μL according to the following methodology: Using RNase-free water, reagents, and consumables, crRNA (final concentration 0.61 μM), tracrRNA (final concentration 0.61 μM), and ultrapure Tris-HCl, pH 7.39 (final concentration 10 mM, ThermoFisher) were mixed and incubated at 95° C. for 5 minutes. The mixtures were cooled to room temperature for 10 minutes on the benchtop, and then, EnGen Cas9-NLS S. pyogenes (New England Biolabs) was added to a final concentration of 30 ng/μL. The mixtures were incubated at 37° C. for 15 minutes before adding any remaining components: ssODN (final concentration 3 ng/μL or 30 ng/μL), RAD51 (Creative Biomart, final concentration 10 ng/μL). Injection mixtures were stored on ice and briefly heated to 37° C. prior to injection. For experiments utilizing RS-1, embryos were cultured in KSOM-AA (EMD Millipore MR-121-D) with […] RS-1 (Sigma) dissolved in DMSO or DMSO (Sigma, 1:1000) for 24 hours, washed, and cultured in EmbryoMax FHM HEPES Buffered Medium (Sigma) until collection for genotyping.
# For experiments using wildtype recombinant proteins, the following proteins were used: RAD51 (Creative Biomart RAD51-134H), USP1/WDR48 (Creative Biomart USP1&WDR48-1067H), BCCIP (Origene TP303061), XRCC1 (TP304952), XRCC4 (Origene TP312684), DMC1 (Origene TP318311). For experiments using mutant RAD51, custom RAD51 preparations were produced by Creative Biomart according to their standard protocol for producing the wildtype RAD51 used in all other experiments. Mutant DNA sequences used for cloning are described in TABLE 2. All RAD51 mutants were modeled in human RAD51 transcript variant 4 (NCBI accession NM_001164269), as this is the transcript variant of the wildtype RAD51-134H protein used in all other experiments.
# In vitro fertilization was performed using FERTIUP® Mouse Preincubation Medium and CARD MEDIA (Kyudo Company) according to the manufacturer's protocol. Non-virgin Chd2^R1684H/R1684H males that were >8 weeks old were used as sperm donors. Following IVF, embryos were cultured for 8 hours and then injected using the PNI protocol described below.
# For all experiments except those described in FIG. 6, the male pronucleus was injected. Injections performed for the CPI portion of FIG. 6 were targeted to the cytoplasm. All microinjections were performed using a Narishige Micromanipulator, Nikon Eclipse TE2000-S microscope, and Eppendorf 5242 microinjector. Individual zygotes were injected with 1-2 pL of injection mixture using an “automatic” injection mode set according to needle size and adjusted for clear increase in pronuclear volume. Following injections, cells were cultured in KSOM-AA until collection for genotyping. For experiments giving rise to F0 animals, embryos were surgically implanted into pseudopregnant CD-1 females (Charles River Laboratories, Strain Code 022) 24-hours post-injection and allowed to develop normally until natural birth.
# Embryos were collected at morula-to-blastocyst stage in 4 μL nuclease-free water. After collection, 4 μL of 2× embryo digestion buffer was added to each sample (final concentrations: 125 μg/mL proteinase K, 100 mM Tris-HCl pH 8.0, 100 mM KCl, 0.02% gelatin, 0.45% Tween-20, 60 μg/mL yeast tRNA) and embryos were lysed for 1 hour at 56° C. Proteinase K was inactivated via incubation at 95° C. for 10 minutes and DNA was stored at −20° C. until use.
# Chd2^R1684H genotyping was performed via a two-step, nested approach. Except for experiments described in FIGS. 3A-3G, all 8 μL of embryo DNA were used as input for the initial, long round of PCR. Genotyping of mouse pups and adult animals was performed using 2 μL of purified tail DNA. For all embryo genotyping, reactions mixtures were set up in a UV-sterilized laminar flow hood using sterile reagents and filter tips to avoid contamination. […]
# [1] = compared to embryos injected with wildtype RAD51
molecule,measurement,setting,value
"G151D: recombinant RAD51 gain-of-function mutant with increased strand exchange activity, SEQ ID NO: 8 (protein) MAMQMQLEANADTSVEEESFGPQPISRLEQCGINANDVKKLEEAGFHTVEAVAYAPKKELINIKGISEAKADKILTESRSVARLECNSVILVYCTLRLSGSSDSPASASRVVGTTGGIETGSITEMFGEFRTGKTQICHTLAVTCQLPIDRDGGEGKAMYIDTEGTFRPERLLAVAERYGLSGSDVLDNVAYARAFNTDHQTQLLYQASAMMVESRYALLIVDSATALYRTDYSGRGELSARQMHLARFLRMLLRLADEFGVAVVITNQVVAQVDGAAMFAADPKKPIGGNIIAHASTTRLYLRKGRGETRICKIYDSPCLPEAEAMFAINADGVGDAKD",efficiency of ICHR stimulation,,~100%
same,indel-to-ICHR ratio (level),,near zero
same,indel events,27 injected zygotes,not a single indel event was identified
same,apparent editing efficiency,blastocysts from Cas9/crRNA/tracrRNA-injected embryos,22%
same,ICHR rate compared with baseline (Cas9-only embryos),"co-injected with Cas9/crRNA/tracrRNA, no donor",ICHR was observed in all edited cells
same,indel-to-ICHR ratio,compared to control embryos,drastic decrease
same,overall indel rate,compared to control embryos,drastic decrease
same,indel-to-ICHR ratio,[1],significant decreases
same,overall indel rate,[1],significant decreases
